Here are results for two proteins from article PMC6131064.

Substrate in series [1]: CC(=O)CC(=O)SCCNC(=O)CCNC(=O)[C@H](O)C(C)(C)COP(=O)(O)OP(=O)(O)OC[C@H]1O[C@@H](n2cnc3c(N)ncnc32)[C@H](O)[C@@H]1OP(=O)(O)O
As to the kind of experiment: thiolysis, decrease in A303 of Mg-keto-acyl-CoA complex, Michaelis-Menten fit. Format: biochemical, Cupriavidus necator. Particulars: C4 thiolysis, 200 μM CoASH, 10 mM MgCl2, 100 mM Tris pH 7.0.

Substrate in series [2]: CCCC(=O)CC(=O)SCCNC(=O)CCNC(=O)[C@H](O)C(C)(C)COP(=O)(O)OP(=O)(O)OC[C@H]1O[C@@H](n2cnc3c(N)ncnc32)[C@H](O)[C@@H]1OP(=O)(O)O
The series is described as above. Format: biochemical, Cupriavidus necator. The settings on record: C6 thiolysis, 200 μM CoASH, 10 mM MgCl2, 100 mM Tris pH 7.0.

B1: BktB (Cupriavidus necator H16; M158A) (protein)
chain: MTREVVVVSGVRTAIGTFGGSLKDVAPAELGALVVREALARAQVSGDDVGHVVFGNVIQTEPRDMYLGRVAAVNGGVTINAPALTVNRLCGSGLQAIVSAAQTILLGDTDVAIGGGAESMSRAPYLAPAARWGARMGDAGLVDMMLGALHDPFHRIHAGVTAENVAKEYDISRAQQDEAALESHRRASAAIKAGYFKDQIVPVVSKGRKGDVTFDTDEHVRHDATIDDMTKLRPVFVKENGTVTAGNASGLNDAAAAVVMMERAEAERRGLKPLARLVSYGHAGVDPKAMGIGPVPATKIALERAGLQVSDLDVIEANEAFAAQACAVTKALGLDPAKVNPNGSGISLGHPIGATGALITVKALHELNRVQGRYALVTMCIGGGQGIAAIFERI
As to B1, in series [1], the Km (commonly the substrate concentration at which the rate is half of its maximum) stood at 14.1 µM; the kcat (in general, the maximal rate divided by the concentration of active sites) worked out at 4.63 s⁻¹; the kcat/Km – broadly, the turnover number divided by the Michaelis constant – is 328000 M⁻¹ s⁻¹. Also, in series [2], the Km amounted to 17 µM, the kcat was 16.7 s⁻¹ and the kcat/Km came out at 982000 M⁻¹ s⁻¹.

B2: BktB (Cupriavidus necator H16) (protein)
chain: MTREVVVVSGVRTAIGTFGGSLKDVAPAELGALVVREALARAQVSGDDVGHVVFGNVIQTEPRDMYLGRVAAVNGGVTINAPALTVNRLCGSGLQAIVSAAQTILLGDTDVAIGGGAESMSRAPYLAPAARWGARMGDAGLVDMMLGALHDPFHRIHMGVTAENVAKEYDISRAQQDEAALESHRRASAAIKAGYFKDQIVPVVSKGRKGDVTFDTDEHVRHDATIDDMTKLRPVFVKENGTVTAGNASGLNDAAAAVVMMERAEAERRGLKPLARLVSYGHAGVDPKAMGIGPVPATKIALERAGLQVSDLDVIEANEAFAAQACAVTKALGLDPAKVNPNGSGISLGHPIGATGALITVKALHELNRVQGRYALVTMCIGGGQGIAAIFERI
Consider B2, for which, in series [1], the Km came out at 17.5 µM, the kcat came to 148 s⁻¹ and the kcat/Km came to 8.45e+06 M⁻¹ s⁻¹. In addition, in series [2], the Km is 15.2 µM, the kcat came to 4.06 s⁻¹ and the specificity constant (kcat/Km) turned out to be 267000 M⁻¹ s⁻¹.
